{"source": "paper PMC7105229", "key": {"[1]": {"molecular_target": "Vibrio vulnificus FAN1 (Vibrio vulnificus)", "assay": "SEC"}, "[2]": {"molecular_target": "Vibrio vulnificus FAN1 (Vibrio vulnificus)", "assay": "SEC", "remark": "listed apart in the source"}}, "note": "Like-named read-outs stand apart in the source and are kept apart here.", "data": [{"substance": "Vibrio vulnificus FAN1 (enzyme)", "values": [{"measurement": "stoichiometry N", "setting": "[1]", "result": 2}, {"measurement": "stoichiometry N", "setting": "[2]", "result": 2}]}]}
